Measurements from the nanobody polyreactivity screen of Harvey et al. (2022).

assay: yeast display, Sf9 membrane polyspecificity reagent, FACS + sequencing; frameworks hold sequencing errors
How it was run: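 Sorting gates, low and high (top ~1%), were placed on anti-HA fluorescence to track expression and on streptavidin fluorescence to track reagent binding. A clone's polyreactivity label is taken from the gate it came out of. The reagent was 10% biotinylated, detergent-solubilized Sf9 membrane, applied for 1 hour at 4 °C to galactose-induced yeast display cells.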

Sequence | polyreactivity (PSR sort gate)
QVQLVESGGGLVQAGVSLRLSCAASGFIFSFNAMGWYRQAPGKERELVAAISRSGGSTRYADSVKGRFTISRDNAKNTVYLQMNCLKPEDTAVYYCNARSPYYSYLLHAYRLFDYWGQGTQVTVSS | high polyreactivity
QVQLVESGGGLVQAGVSLRLSCAASGFTFPWYAMGWYLQAPGKERELVAAISWTGGSTYYADSVKGRFTSSRDNPKNTVNLQMLSLKPEDTAVYYCAVGIYDHLYNHEYWGHGTQVTVSS | low polyreactivity
QVQLVESGGGLVQAGVSLRLSCAASGGTFLVSAKGWYRQAPGKERQMVAAISVSGGSTYYADSVKGRFTISRDNAKNTVYLQMNSLKPEDTAVYYCAATYSHPFHTYVLRFFAYYYWGQGTQVTVSS | high polyreactivity
QVQLVESGGGLVQAGVSLRLSCAASGGTIVGNAMGWYRQAPGKERELVAAMSTNSGSTYYADSVKGRFTISRDNAKNTVYLQMNSLKPEDTAVYYFATRNSSKRRGYYYWGQGTQVTVSS | high polyreactivity
QVQLVESGGGLVQAGVSLRLSCAASGIIFRGNAMGWYRQAPGKERELVASICRRGGSTYYADSVKGRFTISRDNAKNTVYLQMNSLKPEDTAVYYCNAYGSTYVYGPYDYWGQGTQVTVSS | high polyreactivity
QVQLVESGGGLVQAGVSLRLSCAASGIILRYYVMGWYRQAPGKERELVAAITSRGGSTYYADSVKGRFTISRDNAKNTVYLQMNSLKPEDTAVYYCAAGYRNVNTFDYWGQGTQVTVSS | high polyreactivity
QVQLVESGGGLVQAGVSLRLSCAASGNIFGVYTMGWYRQAPGQEREFVAAISDGGSTYYADSVKGRFTISRDNAKNTVYLQMIRLKPEDTAVYYCAALIYGPDRVVDEFVYWGQGTQVTVSS | low polyreactivity
QVQLVESGGGLVQAGVSLRLSCAASGNTFKYYPMGWYRQAPGKEWELVAGITGTGGRTNYADSVKGRFTISRDNAKNTVYLQMTSLKPEDTAVYYFAADYWWYTGYDYWGQGTQVTVSS | high polyreactivity
QVQLVESGGGLVQAGVSLRLSCAASGRIFGYNDMGWYRQAPGKERELVAAINWTGGSTYYADSVKGRFTISRDNAKNTVYLQMNSLKPEDTAVYYCNADARTKWVQTHTDFITDYDYWGQGTQVTVSS | low polyreactivity
QVQLVESGGGLVQAGVSLRLSCAASGRTFAYNDMGCYRQAPGKERELVAAISWSDGTTYYADSVKGRFTSSRDNAKNTVYLQMNSLKPEDTAVYYCAAESYPSEVASYVSEYDYWGQGTQVTVSS | low polyreactivity
QVQLVESGGGLVQAGVSLRLSCAASGSIFVHYDMGWYRPAPGKERELVADIDYSGGSTYYADSVKGRFTISRDYAKNTVYLQMNSLKPEDTAVYDCAAERRRWGLDYYYWGQGTQVTVSS | high polyreactivity
QVQLVESGGGLVQAGVSLRLSCAASGSTFTANAMGWYRQAPGKERELVAAITNSDGSTYYADSVKGRFTISRDNAKNTVYLQINSLKPEDTAVYYCAKDYYACFWEMDYWGQGTQVTVSS | low polyreactivity
QVQLVESGGGLVQAGVSLRLSCAASGSTLVLNAMGWYRQAPGKERELDAAISRGGGSTSYADSVKGRFTISRDNAKNTVYLQMNSLKPEDTAVYYCNAYTYYHANHVQGFGYWGQGTQVTVSS | low polyreactivity
QVQLVESGGGLVQAGVSLRLSCAASGSTSSRNAMGRYRQAPGKEWELVAAITSGTRTYYADSVKGRFTISRDNAKNTVYLQMNSLKPEDTAVYYCARGRVSRYTNTDYDYWGQGTQVTVSS | high polyreactivity
QVQLVESGGGLVQAGVSLRLSCSASGRTFSGYAMGWYRQAPGKERELVAAISGGTSTNYADSVKGRFTISRDNAKNSVYLPMNSLKPEDTAVYYCNTDVPDPYWAYWTGGYDYWGQGTHVTVSS | low polyreactivity
QVQLVESGGGLVQAGVSLSLSCAGSGFIFFQYPMGWYRDAPGKDRELVAAISGSGVTTYYADSVKGRFTISRDYAKKTVYLQMNSLKPEDTAVYYCAALHYRIRRTGMDYWGQGTQVTVSS | low polyreactivity
QVQLVESGGGLVQALGSLRLSCAASGTTFNSNVMGWYRPAPGKERELVAGNNTTYYADSVKGRFTISRDNAKNTVYLQMNSLKPEDTAVYYCNGSEDAPAIEYLAPDGHDGYWGQGTQVTVSS | low polyreactivity
QVQLVESGGGLVQARGSLRLSCAASALTFRIYDMGWYRQAPGKERELVAAITRGGSTYADSVKGRFTISRDNAKNTVYLQMNSLKPEDTAVYYCAARVRSTSQVSASPVWYYYWGQGTQVTVSS | high polyreactivity
QVQLVESGGGLVQARGSLRLSCAASGFILTYYAMGRYRQAPGKEMELVATISSGGGSTYYADSVKGRFTISRDNAKNTVYLQMNSLKPEDTAVYFCAASRRMTGIRYINRYEYWGQGTQVTVSS | high polyreactivity
QVQLVESGGGLVQARGSLRLSCAASGFTFDFYAMGWYRQAPGKERELVAAISKNDGTTYYADSVKGRFTISRDNAKNTVYLQMNSLKREDTAVYYCAAESGYPDYTYVSSGDYWGQGTQVTVSS | low polyreactivity
QVQLVESGGGLVQARGSLRLSCAASGIIFGYNAKGWYRQAPGKERELVAVITWNGGSTYYADSVKGCFTISRDNAKNTVYLQMNSLKPEDTAVYYCNAGDDYAYGVELSYDYWGQGTQVTVSS | low polyreactivity
QVQLVESGGGLVQARGSLRLSCAASGRIFSPYAMGWNRQAPWKERELVASITSGGTTNYADSVKGRFTISRDNAKNTVYLQMNSLKTEDTAVYYCATTYSYDDKFTSTLVDPDYGYWGQGTQVTVSS | low polyreactivity
QVQLVESGGGLVQARGSLRLSCAASGRILWDYAMGWYRQAPGKEREWLAAIDWSAGSTYYADSVKGRFTISRDNAKNTVYLQMKSLKPEDTAVYYCNARSRVGNSGADYDYWGQGTQVTVSS | low polyreactivity
QVQLVESGGGLVQARGSLRLSCAASGRTFGLYAMGWYIQAPGKEWELVAAITSGGSTYYADSVKGRFTISRDNAKYTVYLQMNSLTPEDTAVYFCDAEHDYLAQFEYDYWGPGTQVTVSS | low polyreactivity
QVQLVESGGGLVQARGSLRLSCAASGRTFTSYAMGWYRQAPGKERELVAAISKRGGNTYYADSVKGRFTISRDNAKNTVYLQMNSLKPEDTAVYYCAARTWAGRWYGLDYWGQGTQVTVSS | high polyreactivity
QVQLVESGGGLVQARGSLRLSCAASGRTSPYYAMGWYRQAPGKEREWVAAISDGGSTNYADSVKGRFTISRDNAKNTVYLQMNSLKPEDTAVYYCAAYWHCFGWLRGGYWGQGTQVTVSS | high polyreactivity
QVQLVESGGGLVQARGSLRLSCAASGSIFHHYAMGWYRQAPGKDTELVAAISKSGGSTYYADSVKGRFTISRDNAKNTVYLQMNSLKPEDTAVYYCNAEVFWWDLWYDYWGQGTKVTVSS | high polyreactivity
QVQLVESGGGLVQARGSLRLSCAASGSIFPGYAMRWYREAPGKARELVAAISTSGGSTYADSVTGRFTISRDNAKNTGYLQMNSLKPEDTAVYYCAATYTYTSPVYYSLDGPWPYDYWGQGSQVTVSS | low polyreactivity
QVQLVESGGGLVQARGSLRLSCAASGSIFPNYAMGWYRQAPGKERELVAAISSSGGRTYYADSVKGRFTSSRDNAKNTVYLQMNRLKPEDTAVYYCAVRGYWGEGTQVTVSS | low polyreactivity
QVQLVESGGGLVQARGSLRLSCAASGSIFYRNAMGWYRQAPGKETELVARIDRGGITHYADSVKGRFTISRDNAMNTVYLQMNSLKPEDTAVYYCAARKGYWYPTGHGARRYDYWGQGTQVTVSS | high polyreactivity
